From article PMC7537338 (2020)
Where no end group is shown, it is not given here.

Tests used:
[1] = target: human CD47-IgV-Domain-hIg fusion protein (human, UniProt Q08722 19-141); experiment: FACS; competition with human SIRPα on CHO cells
[2] = target: T1, mouse CD47-IgV-Domain-hIg fusion protein (mouse, UniProt Q61735 19-140); experiment: FACS; competition with mouse SIRPα on CHO cells
T1 chain: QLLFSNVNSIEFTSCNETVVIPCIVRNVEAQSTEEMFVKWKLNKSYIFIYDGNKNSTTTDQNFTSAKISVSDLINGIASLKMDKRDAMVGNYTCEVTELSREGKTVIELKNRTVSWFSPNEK

Chain of human CD47-IgV-Domain-hIg fusion protein (Q08722 19-141): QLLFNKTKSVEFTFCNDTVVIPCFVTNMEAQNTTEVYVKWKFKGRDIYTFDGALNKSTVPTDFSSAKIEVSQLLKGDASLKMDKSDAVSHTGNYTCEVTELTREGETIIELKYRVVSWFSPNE

IC50 [1]: 12.1 µM
IC50 [2]: 18.2 µM
B1: pep-20-D12 (peptide)
chain: AWSATWSNYWRH
modifications: also: three D-amino acid residues substituted at N- and C-terminal, places not given here
